The test concerns the target β-银环蛇毒素 (银环蛇) (UniProt P00617).

B1: β-BGT单克隆抗体株3B10B7 (antibody)
VH: LTMNFGLSWVFLVLTLKGVKCVVQLLESGRGLVKPGGSLKLSCAASGFAFSTYDTSWVRQTPEKRLEWVTYTSRGAGNTYYPDTVKGRFTISRDNAKNTLYVQMSSLKSEDTAMYYCARQSAWSLPIDYWGQGTLVTVSAAKTTPPSVYPLAPVCGG
VL: DIVMTQTPASLAVSLGQRATISYRTSKRVTTSGYSYMHWNQQKPGQPPRLLIYLASILESGVPARFSGSGSGTDFTLNIHPVEEEDAATYYCQHISELIRSEGGPSWKSNGLMLHQLYP
The molecule B1 yielded a 检测限 of 20 ng/mL.

B2: β-BGT单克隆抗体株2B10E7 (antibody)
VH: LTMDFGLSWVFLVLTLKGVKCEVQLVESGGGLVKPGGSLKLSCAASGFAFSTSDISWVRQTPEKRLEWVTYISNGAGNTYNPDTDKGTFTISRDNAKNTLYVQMSSLKSEDTAMYYCARHNASSLQFAYWGQGTLVTVSAVKTTPPSVYPLAPVCGD
VL: DIVLTQSPASLAVSLGQRATISYRDSKSVSRSGYSYMHWNQQKPGQPPRLLIYLVSYLESGVPARFSGSGSGTDFTLNIHPVEEEDAATYYCQHTRELTRSEGGPSWKLNGLMLHQLYP
As for B2, the 检测限 was 20 ng/mL.

These data come from CN114560934A.
